Assay results from patent publication US20080125498A1, “TREATMENT OF NEURODEGENERATIVE DISEASES AND CONDITIONS USING PAR1 ANTAGONISTS” (priority 2001, published 2008).

Key:
Assay in all cases: cell-based or functional assay
[1] = molecular target: recombinant NR1 subunit in NR1/NR2A and NR1/NR2B NMDA receptors expressed in Xenopus oocytes
[2] = molecular target: protease-activated receptor 1 (PAR1), rat, endogenous in hippocampal neurons (rat) (UniProt P26824)
alpha-thrombin = molecular target: alpha-thrombin

Sequence of protease-activated receptor 1 (PAR1), rat, endogenous in hippocampal neurons (rat) (P26824 46-432): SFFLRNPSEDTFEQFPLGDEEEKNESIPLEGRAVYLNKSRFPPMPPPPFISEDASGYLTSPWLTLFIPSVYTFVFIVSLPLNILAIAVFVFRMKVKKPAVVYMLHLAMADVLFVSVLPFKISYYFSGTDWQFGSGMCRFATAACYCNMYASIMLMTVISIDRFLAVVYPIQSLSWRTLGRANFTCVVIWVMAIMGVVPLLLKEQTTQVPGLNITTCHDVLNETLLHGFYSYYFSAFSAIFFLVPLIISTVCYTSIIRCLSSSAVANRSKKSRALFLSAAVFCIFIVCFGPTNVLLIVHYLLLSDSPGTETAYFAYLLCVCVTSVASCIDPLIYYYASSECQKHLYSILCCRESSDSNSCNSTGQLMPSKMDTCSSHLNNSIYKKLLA

| NMDA receptor current response amplitude in oocytes after 300-1000 nM thrombin for 60 minutes [1] [%] | average peak potentiation of NMDA responses in CA1 pyramidal cells at -40 mV in 1.4 mM Mg2+ [2] [fold] | average peak potentiation of NMDA responses in CA1 pyramidal cells at -70 mV in 1.4 mM Mg2+ [2] [fold] | peak potentiation of NMDA responses at -70 mV in CA1 pyramidal neurons [2] [fold] | potentiation by thrombin of NMDA responses in the presence of hirudin (alpha-thrombin) [fold] | Substance |
| --- | --- | --- | --- | --- | --- |
| 42 | 1.48 | 2.1 | 2.07 |  | alpha-thrombin (enzyme) |
|  |  |  |  | 0.96 | hirudin |
